Results: the nanobody polyreactivity screen of Harvey et al. (2022)

Test: yeast display, Sf9 membrane polyspecificity reagent, FACS + sequencing; frameworks hold sequencing errors
Method in brief: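 Genes from sorted yeast were amplified by colony PCR, read by MiSeq 2 × 250 sequencing and filtered on CDR length. These cells carried a synthetic nanobody library in Saccharomyces cerevisiae BJ5465 and were sorted by FACS into low and high (top ~1%) gates on anti-HA and streptavidin fluorescence. Polyreactivity is labelled according to the gate of origin.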

Row | Sequence | polyreactivity (PSR sort gate)
1 | QVQLVESGGGLVQAGGSLRLSCAASGIIFLDYVMGWYRQAPGKERELVAAINSGGSTYYADSVKGRFTISRDNAKNTVYLQMNSLKPEDTAVYYCAADDYYKFDYWGQGTQVSVSS | low polyreactivity
2 | QVQLVESGGGLVQAGGSLRLSCAASGIIFLDYVMGWYRQAPGKERELVAAISRSGGTTYYADSVKGRFTISRDNAKNTVYLQMNSLKPEDTAVYYCAVRSYRDTRFYYWGQGTKVTVSS | high polyreactivity
3 | QVQLVESGGGLVQAGGSLRLSCAASGIIFLENAMGWFRQAPGKESELVAGINGGGRTDYADSVKGRFTISRDNAKHTVYLQMNSLKPEDTAVYYCAAESSWYSPDVNYCGQGTQVTVSS | low polyreactivity
4 | QVQLVESGGGLVQAGGSLRLSCAASGIIFLFYAMGWYRQAPGKERELVASITWSGGSTYYADSVKGRFTISRDNAKNTVYLQMNSLKPEDTAVYYCAASVKIISYLVHSEFLGGELDYWGQGTQVTVSS | low polyreactivity
5 | QVQLVESGGGLVQAGGSLRLSCAASGIIFLGNAMGWYRQAPGKERELVAAITASGTSTYYADSVKGRFTISRDNAKNTVYLQMNSLKPEDTAVYYCAAQSTWYDYYYWGQGTQVTVSS | low polyreactivity
6 | QVQLVESGGGLVQAGGSLRLSCAASGIIFLGYVMGWYRQAPGKERELVAAISSSGGRTYYADSVKGRFTISRDNAKNTVYLQMNSLKPEDTAVYYCARYSYRGTNVRYDYWGQGTQVTVSS | high polyreactivity
7 | QVQLVESGGGLVQAGGSLRLSCAASGIIFLLYAMGWYRQAPGKERELVAAITNGGRTNYADSVKGRFTISRDNAKNTVYLQMNSLKPEDTAVYYCNAVLSVPDYTLFDYWGQGTQVTVSS | low polyreactivity
8 | QVQLVESGGGLVQAGGSLRLSCAASGIIFLNYDIGWYRPAPGKERELVAAITTSGASTYYADSVKGRFTISRDNAKNTVYLQMNSLKREDTAVYYCAAVFRHARYRYDYWGQGTQVTVSS | high polyreactivity
9 | QVQLVESGGGLVQAGGSLRLSCAASGIIFLSYAMGWYRQAPGKERELVATITRSGGSTYYADSVEGRFTISRDNAKNTVYLQMNSLKPEDTAVYYCARYWRTSGVRMDYWGQGTQVTVSS | high polyreactivity
10 | QVQLVESGGGLVQAGGSLRLSCAASGIIFNDYAMGWYRQAPGKERELVAAISWSGGRTYYADSVKGRFTISRDNAKNTVYLQMNSLKPEDTAVYYCNARARQYSAFPVVERNYWGQGTQVTVSS | high polyreactivity
11 | QVQLVESGGGLVQAGGSLRLSCAASGIIFNRYAMGWYRQAPGKERELVAAISASGDSTYYADSVKGRFTISRDNAKYTVYLQMNSLKPEDTAVDYCAADYGYRYDYWGHGTQVTVSS | low polyreactivity
12 | QVQLVESGGGLVQAGGSLRLSCAASGIIFNTYAMGWYRQAPGKERELVAAIDSRDASTYADSVKGRYTISRDNAKNTVYLQMNSLIPEDTAVYYCAATHNVDLISEVYYWGQGTQVTVSS | low polyreactivity
13 | QVQLVESGGGLVQAGGSLRLSCAASGIIFPDYVMGWYRQAPGKERELVATITNDSSTTYADSVKGRFTISRDNAKNTVYLQMNSLKPEDTAVYYCAAPVDYQGDYWGQGTQVTVSS | low polyreactivity
14 | QVQLVESGGGLVQAGGSLRLSCAASGIIFPEYDMGWYRQAPGKERELVAAITKSDGRTYYADSVKGRFTISRDNAKNTVYLQMNSLKPEDTAVYYCNADPRVVAYLGFDSWGQGTQVTVSS | low polyreactivity
15 | QVQLVESGGGLVQAGGSLRLSCAASGIIFPFYVMGWYRQAPGKERELVAAITWSGDGTYYADSVKGRFTISRDNAKNTVYLQMNSLKPEDTAVYYCAAQWYYGGVKYYYWGQGTQVTVSS | low polyreactivity
16 | QVQLVESGGGLVQAGGSLRLSCAASGIIFPLYAMGWYRQAPGKERELVADITRGGSTYYADSVKGRFTISRDNAKNTVYLQMNSLKPEDTAVYYGNKQKRWTYSHYFPTTYDYWGQGTQVTVSS | high polyreactivity
17 | QVQLVESGGGLVQAGGSLRLSCAASGIIFPNYAMGWYRQAPGKERELFAAITWRGGGTYYADSVKGRFTISRDNAKNTVYLQMNSLKPEDTAVYYCAAQKAYPRRYYGYKWEYYYWGQGSQVTVSS | high polyreactivity
18 | QVQLVESGGGLVQAGGSLRLSCAASGIIFPNYAMGWYRQAPGKERELVAAITTSGTSTYYADSVKGRFTISRDNAKNTVYLQMNSLKPEDTAVYYCAARPTGHWGGRYYYWGQGTQVTVSS | high polyreactivity
19 | QVQLVESGGGLVQAGGSLRLSCAASGIIFPRYAMGWYRQAPGKERELVAAITIGGRTNYADSVKGRFTISRDNAKNTVYLQMNSLKPEDTAVYYCAAQTYVPYYEYDYWGQGTQVTVSS | low polyreactivity
20 | QVQLVESGGGLVQAGGSLRLSCAASGIIFPYNAMGWYTQAPGKERELVAAITGGGSTYYADSVKGRFTISRDNAKNTVYLQMNSLKPEDTAVYYCAADRSGPGYDYWGQGTQVTVSS | low polyreactivity
21 | QVQLVESGGGLVQAGGSLRLSCAASGIIFPYNVMGWYRQAPGKERELVAAITRGAASTYYADSVKGRFTISRDNAKNTVYLQMNSLKPEDTAVYYCATDPVSTRGSDYWGQGTQVTVSS | high polyreactivity
22 | QVQLVESGGGLVQAGGSLRLSCAASGIIFQGYVMGWYRQAPGKERELVAVISRTGGSTYYADSVKGRFTISRDNAKNTVYLQMNSLKPEDTAVYYSSAGTPRLRYLQGHRMNYWGKGTQVTVSS | high polyreactivity

Row | Sequence | polyreactivity (PSR sort gate)
23 | QVQLVESGGGLVQAGGSLRLSCAASGIIFQRNDMGWYRQAPGKERELVANIRDGGITYADSVKGRFTISRDNAKNTVYLQMNSLKPEDTAVYYCARDDTSPGFGDQSSNAAYYYWGQGTQVTVSS | low polyreactivity
24 | QVQLVESGGGLVQAGGSLRLSCAASGIIFRAYAMGWYRQAPGKERELVAAITSRGGSTYYADSVKGRFTISRDNAKNTVYLQMNSLKPEDTAVYYCAADFTIPYWDAKFDYWGQGTQVTVSS | low polyreactivity
25 | QVQLVESGGGLVQAGGSLRLSCAASGIIFRFYAMGWSRQAPGKERELVATISKRGGTTYYADSVKGRFTISRDYAMNTVDLQMNSLKPEDSAVYYCAVRLYLEMDYWGQGTQVTVSS | high polyreactivity
26 | QVQLVESGGGLVQAGGSLRLSCAASGIIFRFYAMGWYRQAPGKERELVAVITSRSDSTYYADSVKGRFTISRDNAKNTVYLQMNSLKPEDTAVYYCNARYPWYYRYSTYDYWGQGTQVTVSS | high polyreactivity
27 | QVQLVESGGGLVQAGGSLRLSCAASGIIFRFYARGWYRQAPGKERELVAAISSSGTRTYYADSVKGRFTISRDNAKNTVYLQMNSLKPEETAVYYCNAAYHYYDYDYWGQGTQVTVSS | high polyreactivity
28 | QVQLVESGGGLVQAGGSLRLSCAASGIIFRGYAMGWYRQAPGKERELVAGITSGGRTYYADSVKGRFTISRDNAKNTVYLQMNSLKPEDTAVYYCNADAYGDDWKIYDYWGQGTQVTVSS | low polyreactivity
29 | QVQLVESGGGLVQAGGSLRLSCAASGIIFRGYDMGWYRQAPGKERELVAVITDDGSTYYADSVKGRFTISRDNAKNTVYLQMNSLKPEDTAVYYCNADYLLGHWIWYDYWGQGTQVTVSS | low polyreactivity
30 | QVQLVESGGGLVQAGGSLRLSCAASGIIFRGYVMGWYRQAPGKERELVAAISTSGGRTSYADSVKGRFTISRDYAKNTVYLQMNSLKPEDTAVYYCAARPLYSYSQWGYGYWGQVTQVTVSS | high polyreactivity
31 | QVQLVESGGGLVQAGGSLRLSCAASGIIFRKYAMGWYRQAPGKERELVAAISFSGGTTYYADSVKGRFTISRDNAKNTVYLQMNSLKPEDTAVYYCAADPVAYVIDDYYWGQGTQVTVSS | high polyreactivity
32 | QVQLVESGGGLVQAGGSLRLSCAASGIIFRNYAMGWYRQAPGKERELVAAISRNGGSTYYADSVKGRFTISRDNAKNTVYLQMNSLKPEDTAVYYCAARASYPNWTYYYWGKGTQVTVSS | high polyreactivity
33 | QVQLVESGGGLVQAGGSLRLSCAASGIIFRPYAMGWYRQAPGTEMELVAAITGSGVSTYYADSVKGRFTISRDNAKNTVYLQMNSLKPEDTAVYYCAKRYNRGYHRYDYWGQGTQVTVSS | low polyreactivity
34 | QVQLVESGGGLVQAGGSLRLSCAASGIIFRRNAMGWYRQAPGKERELVATISRSGGSTYYADSVKGRFTISRYNAKNTVYLQMNSLKPEDTAVYYCNTLYPRPYAINPRDYWGQGTQVTVSS | high polyreactivity
35 | QVQLVESGGGLVQAGGSLRLSCAASGIIFRRYAMGWYRQAPGKERELVAAIRTSGGNTYYADSVKRRFTISRDNAKNTVYLQMNSLKPEDTAVYYCAARKYHYRYGYWGQGTQVTVSS | high polyreactivity
36 | QVQLVESGGGLVQAGGSLRLSCAASGIIFRRYAMGWYRQAPGKERELVAAISSGGRTYYADSVKGRFTISRDNAKNTVYLQMNSLKPEDTAVYYCNARAFARYWWYEYWGQGTQVTVSS | high polyreactivity
37 | QVQLVESGGGLVQAGGSLRLSCAASGIIFRRYAMGWYRQEPGKARELVAAITSGGDTNYADSVKGRFTLSRDNAKNTVYLQMNSLKPEDTAVYYCNAGLRGVRRYGFDYWGQGTQVTVSS | high polyreactivity
38 | QVQLVESGGGLVQAGGSLRLSCAASGIIFRSNAMGWYRQAAGNERELVAAISQRGGSTYYADSVKGRFTISRDNAKNTVYLQMNSLKPEDTAVYYCNALQRRYGGGGNDYWGQGTQVTVSS | high polyreactivity
39 | QVQLVESGGGLVQAGGSLRLSCAASGIIFRSNAMGWYRQAPGKERELVAAISRTGRTYYADSVKGRFTISRDNAKNTVNLQMNSLKPEDTAVYYCAVGIVQRDSRYYYWGQGTQVTVSS | high polyreactivity
40 | QVQLVESGGGLVQAGGSLRLSCAASGIIFRSNAMGWYRQAPGKERELVAAISWSGSSTYYADSVKGRFTISRDNAKKTVYLQMNSLKPEDTAVYYCAAYDFYGIYWGQGTQVTVSS | low polyreactivity
41 | QVQLVESGGGLVQAGGSLRLSCAASGIIFRTYAMGWYRQAPGKEREFVAAISWSGGRTYYADSVKGRFTISRDNAKNTVYLQMNSLKPEDTAVYYCAALRSSQSKGDYWGQGTQVTVSS | high polyreactivity
42 | QVQLVESGGGLVQAGGSLRLSCAASGIIFRVNAMGWYRQAPGKERELVAAISSGGRTYYADSVKGRFTISGDNAKNTVSLQMNSLKPEDTAVYYCNAGRLRYIFKSYDYWGQGTQVSVSS | high polyreactivity
43 | QVQLVESGGGLVQAGGSLRLSCAASGIIFRYNAMGWYRQAPGKERELVADITFSVGSTNYADSVKGRFTISRDNAKNTVYLQMNSLKPEDTAVYYCAAKFHSTYGNDDWGQGTQVTVSS | low polyreactivity
